{
  "source": "patent US20240400715A1",
  "about": "(VIBRANT PHARMA, published 2024)",
  "key": {"[1]": {"target": "T1, human CEA (CEACAM5) on tumor cells (human, UniProt P06731 35-702)", "T1 sequence (looked up)": "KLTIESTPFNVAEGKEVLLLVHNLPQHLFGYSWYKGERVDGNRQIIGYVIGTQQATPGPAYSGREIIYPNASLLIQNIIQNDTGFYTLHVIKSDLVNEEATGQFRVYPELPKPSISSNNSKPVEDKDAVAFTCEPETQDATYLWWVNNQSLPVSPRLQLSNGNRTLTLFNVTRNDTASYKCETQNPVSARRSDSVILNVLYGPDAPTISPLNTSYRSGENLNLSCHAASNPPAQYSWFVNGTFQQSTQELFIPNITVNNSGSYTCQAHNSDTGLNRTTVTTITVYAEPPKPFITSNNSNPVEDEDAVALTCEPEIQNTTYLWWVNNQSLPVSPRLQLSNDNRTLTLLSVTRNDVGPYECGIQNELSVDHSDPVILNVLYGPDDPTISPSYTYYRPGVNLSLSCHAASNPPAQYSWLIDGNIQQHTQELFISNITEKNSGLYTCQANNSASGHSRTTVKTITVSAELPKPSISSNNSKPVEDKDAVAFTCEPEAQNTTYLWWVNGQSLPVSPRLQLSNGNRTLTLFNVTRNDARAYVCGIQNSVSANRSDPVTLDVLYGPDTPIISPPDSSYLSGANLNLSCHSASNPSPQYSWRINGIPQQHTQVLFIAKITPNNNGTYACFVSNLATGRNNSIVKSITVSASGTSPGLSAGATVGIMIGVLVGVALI", "test": "cell-based or functional assay"}, "[2]": {"target": "T1, human CEA (CEACAM5) on tumor cells", "test": "cell-based or functional assay", "remark": "listed apart in the source"}, "[3]": {"target": "T2, keyhole limpet haemocyanin (KLH, Sigma, H8283) (keyhole limpet, UniProt Q10583 17-3414; Q10584 20-3421, limits assumed)", "T2 construct": "Bought preparation coated on the plate in the polyspecificity ELISA", "test": "ELISA, KLH coated at 5 ug/mL, 100 nM antibody, anti-human IgG-HRP", "method": "(§1) (1) Antigen coating: cardiolipin (Sigma, cat. C0563), keyhole limpet haemocyanin (KLH, Sigma, H8283), LPS (Sigma, L6529), ssDNA (Sigma, D8899), dsDNA (Sigma, D4522) and Insulin (abs42019847) were plated at 50 μg/mL, 5 μg/mL, 10 μg/mL, 1 μg/mL, 1 μg/mL, g/mL, and 50 μL per well, and incubated at 4° C. overnight;\n(§2) (4) 50 μl anti-human IgG-HRP conjugate (Sigma, AP113P, 1:8000 dilution) was added to each well; the plate was incubated for 1 h at room temperature and washed 6 times with 0.05% PBST;"}, "Insulin (abs42019847)": {"target": "T3, Insulin (abs42019847)", "T3 construct": "Coated on the plate in the polyspecificity ELISA", "test": "ELISA, insulin coated on the plate, 100 nM antibody, anti-human IgG-HRP", "method": "as §1, §2"}, "[4]": {"target": "the molecule itself", "test": "BLI self-interaction: antibody captured on AHQ anti-human Fc sensor, free sites blocked with human IgG, same antibody in solution", "method": "The bispecific antibodies were diluted to 1 μM, and the proteins were coupled to the surface of the AHQ sensor chip in PBS, and the signal value was ˜0.8 nm. […] The experimental parameters are as follows: Baseline1: 60s, Loading: 180s, Loading response: 0.8 nm, Baseline2: 180s, Association: 240s, High sensitivity kinetics: 2 Hz."}, "[5]": {"target": "T4, human HER2 on tumor cells (human, UniProt P04626 23-1255)", "test": "cell-based or functional assay"}, "[6]": {"target": "T4, human HER2 on tumor cells", "test": "cell-based or functional assay", "remark": "listed apart in the source"}, "[7]": {"target": "T5, recombinant tumor antigen human HER2 (ERBB2, ACRO systems, HE2-H5212) (human, UniProt P04626 23-652)", "T5 construct": "Bought recombinant protein", "test": "BLI (Octet RED96e), antibody captured on AHC anti-human Fc sensor, HER2 as analyte, 30 C, 1:1 fit", "from_the_text": "After the chip captures the bispecific antibodies, it was allowed to bind and dissociate with different concentrations of analytes to obtain the KD value of the interaction. The experimental parameters are as follows: Baseline1: 60s, Loading: 240s, Baseline2: 180s, Association: 240s, Dissociation: 600s, Loading Response: 1.9-2.1 (nm), High sensitivity kinetics: 2 Hz. Kinetic constants were derived based on 1:1 Langmuir binding to obtain equilibrium dissociation constants (KD)."}},
  "data": [
    {"binder": "bispecific antibody 104 (CEA-Knob+Fab-Hole) (bispecific antibody, human IgG4 S228P, kappa, F234A L235A, Human IgG4 Fc with knob-into-hole, kappa light chain) EVQLVESGGGFVQAGESLTLSCTSSTLTFTPYRMAWYRQAPGKQRDLVADISSGDGRTTNYADFAKGRFTISRDNIKNTVFLRMTNLKPEDTAVYYCNTFVSFVGIARSWGQGTQVTVSSESKYGPPCPPCPAPEAAGGPSVFLFPPKPKDTLMISRTPEVTCVVVDVSQEDPEVQFNWYVDGVEVHNAKTKPREEQFNSTYRVVSVLTVLHQDWLNGKEYKCKVSNKGLPSSIEKTISKAKGQPREPQVYTLPPCQEEMTKNQVSLWCLVKGFYPSDIAVEWESNGQPENNYKTTPPVLDSDGSFFLYSRLTVDKSRWQEGNVFSCSVMHEALHNHYTQKSLSLSL heavy: EVKLLESGGGLVQPKGSLKLSCAASGFTFNTYAMNWVRQAPGKGLEWVARIRSKYNNYATYYADSVKDRFTISRDDSQSILYLQMNNLKTEDTAMYYCVRHGNFGNSYVSWFAYWGQGTLVTVSSASTKGPSVFPLAPCSRSTSESTAALGCLVKDYFPEPVTVSWNSGALTSGVHTFPAVLQSSGLYSLSSVVTVPSSSLGTKTYTCNVDHKPSNTKVDKRVESKYGPPCPPCPAPEAAGGPSVFLFPPKPKDTLMISRTPEVTCVVVDVSQEDPEVQFNWYVDGVEVHNAKTKPREEQFNSTYRVVSVLTVLHQDWLNGKEYKCKVSNKGLPSSIEKTISKAKGQPREPQVCTLPPSQEEMTKNQVSLSCAVKGFYPSDIAVEWESNGQPENNYKTTPPVLDSDGSFFLVSRLTVDKSRWQEGNVFSCSVMHEALHNRFTQKSLSLSL light: QAVVTQESALTTSPGETVTLTCRSSTGAVTTSNYANWVQEKPDHLFTGLIGGTNKRAPGVPARFSGSLIGDKAALTITGAQTEDEAIYFCALWYSNLWVFGGGTKVEIKRTVAAPSVFIFPPSDEQLKSGTASVVCLLNNFYPREAKVQWKVDNALQSGNSQESVTEQDSKDSTYSLSSTLTLSKADYEKHKVYACEVTHQGLSSPVTKSFNRGEC", "values": [
      {"measurement": "EC50 of tumor cell killing, MDA-MB-468 cells with human PBMC (E:T 10:1, 3 days, CCK8)", "setting": "[1]", "result": 0.672, "unit": "nM"},
      {"measurement": "EC50 of tumor cell killing, NCI-H1573 cells with human PBMC (E:T 10:1, 3 days, CCK8)", "setting": "[1]", "result": 0.00384, "unit": "nM"},
      {"measurement": "EC50 of tumor cell killing, SK-OV-3 cells with human PBMC (E:T 10:1, 3 days, CCK8)", "setting": "[1]", "result": 0.987, "unit": "nM"},
      {"measurement": "EC50 of tumor cell killing, MCF-7 cells with human PBMC (E:T 10:1, 3 days, CCK8)", "setting": "[2]", "result": 8.63, "unit": "nM"},
      {"measurement": "EC50 of tumor cell killing, MDA-MB-453 cells with human PBMC (E:T 10:1, 3 days, CCK8)", "setting": "[2]", "result": 1.96, "unit": "nM"},
      {"measurement": "EC50 of tumor cell killing, N87 cells with human PBMC (E:T 10:1, 3 days, CCK8)", "setting": "[2]", "result": 0.0972, "unit": "nM"},
      {"measurement": "Absorbance value (450 nm, polyspecificity ELISA)", "setting": "[3]", "result": 1.08},
      {"measurement": "Absorbance value (450 nm, polyspecificity ELISA)", "setting": "Insulin (abs42019847)", "result": 2.88},
      {"measurement": "BLI-Response (self-interaction signal)", "setting": "[4]", "result": 0.22, "unit": "nm"}
    ]},
    {"binder": "HER2-CD3 bispecific antibody 501 (bispecific antibody, human IgG4 S228P, kappa, F234A L235A) heavy: EVKLLESGGGLVQPKGSLKLSCAASGFTFNTYAMNWVRQAPGKGLEWVARIRSKYNNYATYYADSVKDRFTISRDDSQSILYLQMNNLKTEDTAMYYCVRHGNFGNSYVSWFAYWGQGTLVTVSSASTKGPSVFPLAPCSRSTSESTAALGCLVKDYFPEPVTVSWNSGALTSGVHTFPAVLQSSGLYSLSSVVTVPSSSLGTKTYTCNVDHKPSNTKVDKRVESKYGPPCPPCPAPEAAGGPSVFLFPPKPKDTLMISRTPEVTCVVVDVSQEDPEVQFNWYVDGVEVHNAKTKPREEQFNSTYRVVSVLTVLHQDWLNGKEYKCKVSNKGLPSSIEKTISKAKGQPREPQVYTLPPCQEEMTKNQVSLWCLVKGFYPSDIAVEWESNGQPENNYKTTPPVLDSDGSFFLYSRLTVDKSRWQEGNVFSCSVMHEALHNHYTQKSLSLSL QVQLVQSGGGLVQAGGSLRLSCAASGRTFSSYAMAWFRQAPGKEREFVAAISWSGANIYVADSVKGRFTISRDNAKDTVYLQMNSLKPEDTAVYYCAVKLGFAPVEERQYDYWGQGTQVTVSSESKYGPPCPPCPAPEAAGGPSVFLFPPKPKDTLMISRTPEVTCVVVDVSQEDPEVQFNWYVDGVEVHNAKTKPREEQFNSTYRVVSVLTVLHQDWLNGKEYKCKVSNKGLPSSIEKTISKAKGQPREPQVCTLPPSQEEMTKNQVSLSCAVKGFYPSDIAVEWESNGQPENNYKTTPPVLDSDGSFFLVSRLTVDKSRWQEGNVFSCSVMHEALHNRFTQKSLSLSL light: QAVVTQESALTTSPGETVTLTCRSSTGAVTTSNYANWVQEKPDHLFTGLIGGTNKRAPGVPARFSGSLIGDKAALTITGAQTEDEAIYFCALWYSNLWVFGGGTKVEIKRTVAAPSVFIFPPSDEQLKSGTASVVCLLNNFYPREAKVQWKVDNALQSGNSQESVTEQDSKDSTYSLSSTLTLSKADYEKHKVYACEVTHQGLSSPVTKSFNRGEC", "values": [
      {"measurement": "EC50 of tumor cell killing, MDA-MB-468 cells with human PBMC (E:T 10:1, 3 days, CCK8)", "setting": "[5]", "result": 1.79, "unit": "nM"},
      {"measurement": "EC50 of tumor cell killing, NCI-H1573 cells with human PBMC (E:T 10:1, 3 days, CCK8)", "setting": "[5]", "result": 0.0405, "unit": "nM"},
      {"measurement": "EC50 of tumor cell killing, NCI-H1650 cells with human PBMC (E:T 10:1, 3 days, CCK8)", "setting": "[5]", "result": 1.59, "unit": "nM"},
      {"measurement": "EC50 of tumor cell killing, NCI-H2228 cells with human PBMC (E:T 10:1, 3 days, CCK8)", "setting": "[5]", "result": 10.2, "unit": "nM"},
      {"measurement": "EC50 of tumor cell killing, SK-OV-3 cells with human PBMC (E:T 10:1, 3 days, CCK8)", "setting": "[5]", "result": 0.0198, "unit": "nM"},
      {"measurement": "EC50 of tumor cell killing, MCF-7 cells with human PBMC (E:T 10:1, 3 days, CCK8)", "setting": "[6]", "result": 8.29, "unit": "nM"},
      {"measurement": "EC50 of tumor cell killing, MDA-MB-453 cells with human PBMC (E:T 10:1, 3 days, CCK8)", "setting": "[6]", "result": 4.05, "unit": "nM"},
      {"measurement": "EC50 of tumor cell killing, N87 cells with human PBMC (E:T 10:1, 3 days, CCK8)", "setting": "[6]", "result": 1.32, "unit": "nM"},
      {"measurement": "EC50 of tumor cell killing, NCI-H157 cells with human PBMC (E:T 10:1, 3 days, CCK8)", "setting": "[6]", "result": 36.2, "unit": "nM"},
      {"measurement": "EC50 of tumor cell killing, NCI-H441 cells with human PBMC (E:T 10:1, 3 days, CCK8)", "setting": "[6]", "result": 0.152, "unit": "nM"},
      {"measurement": "Absorbance value (450 nm, polyspecificity ELISA)", "setting": "[3]", "result": 1.45},
      {"measurement": "Absorbance value (450 nm, polyspecificity ELISA)", "setting": "Insulin (abs42019847)", "result": 1.52},
      {"measurement": "Kd", "setting": "[7]", "result": 13.1, "unit": "nM"},
      {"measurement": "koff", "setting": "[7]", "result": 0.00349, "unit": "s⁻¹"},
      {"measurement": "kon", "setting": "[7]", "result": 266000, "unit": "M⁻¹ s⁻¹"},
      {"measurement": "BLI-Response (self-interaction signal)", "setting": "[4]", "result": 0.056, "unit": "nm"}
    ]}
  ]
}
